# B1: UGT1A1 (Homo sapiens) (protein)
# chain: HAGKILLIPVDGSHWLSMLGAIQQLQQRGHEIVVLAPDASLYIRDGAFYTLKTYPVPFQREDVKESFVSLGHNVFENDSFLQRVIKTYKKIKKDSAMLLSGCSHLLHNKELMASLAESSFDVMLTDPFLPCSPIVAQYLSLPTVFFLHALPCSLEFEATQCPNPFSYVPRPLSSHSDHMTFLQRVKNMLIAFSQNFLCDVVYSPYATLASEFLQREVTVQDLLSSASVWLFRSDFVKDYPRPIMPNMVFVGGINCLHQNPLSQEFEAYINASGEHGIVVFSLGSMVSEIPEKKAMAIADALGKIPQTVLWRYTGTRPSNLANNTILVKWLPQNDLLGHPMTRAFITHAGSHGVYESICNGVPMVMMPLFGDQMDNAKRMETKGAGVTLNVLEMTSEDLENALKAVINDKSYKENIMRLSSLHKDRPVEPLDLAVFWVEFVMRHKGAPHLRPAAHDLTWYQYHSLDVIGFLLAVVLTVAFITFKCCAYGYRKCLGKKGRVKKAHKSKTH
# Substrate: CCc1c2c(nc3ccc(O)cc13)-c1cc3c(c(=O)n1C2)COC(=O)[C@]3(O)CC
# Assay: purified protein
# Conditions: UDPGA
protein,measurement,value
B1,Km,2.5 ± 0.3 µM

# Reference: PMC2900545
